Assay [1] addresses T1, Soluble 8xHis-tagged C-terminal fragment of human CD117 (HuCD117 308-524) (human, UniProt P10721 308-524).
T1 construct: C-terminal part of the extracellular region; also called C-terminal domain; not shown: 8xHis tag
As to the kind of experiment: SPR (Biacore 4000), IgG4 antibody captured on protein G, soluble His-tagged fragment injected at 25, 75, 225 nM. (In SPR one partner is held on a chip, and binding of the other changes the refractive index at the surface.)

Assay [2] concerns the target T2, Full length human CD117, soluble (HuCD117 1-524) (human, UniProt P10721 26-524).
T2 construct: also called full-length protein
As to the kind of experiment: SPR Biacore 4000, captured antibody, soluble CD117 analyte, 1:1 fit.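 Note: antibodies captured on CM5 chips via goat anti-human IgG or IgA, CD117 analyte in two-fold series 0.8–200 nM, run at pH 7.3 and 37 °C, double-referenced sensorgrams.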
Procedure: (§1) Biacore 4000 was used for all binding analyses. Experiments were performed at pH 7.3, 37° C. and under flow rate of 30 μL/min. Human anti-CD117 antibodies were surface captured using either polyclonal goat anti-human IgG or IgA antibodies directly immobilised onto the carboxymethyl dextran surface of CM5 sensorchips to approximately 13,000 RU using standard NHS/EDC chemistry at pH 5. The immobilised antibody surface was pre-conditioned with ten injections of human polyclonal IgG (Privigen 60s, 10 μg/mL) each followed by a regeneration cycle with 100 mM H3PO4.
(§2) A total of 18 anti-CD117 antibodies (2 μg/mL) were tested as captured ligands against four soluble mammalian CD117 receptor variants: the N-terminal domain of human CD117 (HuCD1₁₇₁₋₃₀₈), full length human CD117 (HuCD1₁₇₁₋₅₂₄), cyno CD117 (cynoCD117₁₋₅₂₀), and murine CD117 (MuCD117₁₋₅₂₇).
(§3) CD117 proteins were prepared in two-fold dilutions ranging from 0.8 to 200 nM. Anti-CD117 antibodies huAb249, huAb85, huCK6 and huhzSR1 were used as positive controls. BM4 was prepared in an IgG and IgA2 format and used as negative control. Binding affinities were calculated from sensorgrams double-referenced using reference surface and blank buffer injection data gathered within each experiment.

In assay [3] the target is T3, Cyno CD117, soluble (cynoCD117 1-520) (cynomolgus monkey, UniProt P10721 26-520 (human entry)).
T3 construct: Residues as printed
T3 chain: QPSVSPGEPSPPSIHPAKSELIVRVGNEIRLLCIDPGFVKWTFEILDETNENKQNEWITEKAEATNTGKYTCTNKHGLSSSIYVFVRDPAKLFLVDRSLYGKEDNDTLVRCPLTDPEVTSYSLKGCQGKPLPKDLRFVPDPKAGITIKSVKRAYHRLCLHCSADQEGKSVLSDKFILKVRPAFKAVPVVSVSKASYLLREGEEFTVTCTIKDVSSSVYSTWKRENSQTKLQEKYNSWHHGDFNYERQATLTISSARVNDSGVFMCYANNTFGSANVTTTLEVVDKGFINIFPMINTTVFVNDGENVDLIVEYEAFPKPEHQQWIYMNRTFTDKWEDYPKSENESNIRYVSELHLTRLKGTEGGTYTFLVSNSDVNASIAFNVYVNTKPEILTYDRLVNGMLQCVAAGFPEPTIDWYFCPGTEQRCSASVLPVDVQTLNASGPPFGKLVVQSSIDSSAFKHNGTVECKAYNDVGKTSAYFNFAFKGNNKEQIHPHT
Described as above.
Procedure: as §1, §2, §3

The target of assay [4] is N-terminal domain of human CD117, soluble (HuCD117 1-308) (human, UniProt P10721 26-308). The assay is described as above.
Procedure: as §1, §2, §3
Assay [5] addresses T4, Soluble 8xHis-tagged N-terminal fragment of human CD117 (HuCD117 1-307) (human, UniProt P10721 26-307).
T4 construct: This range counts from the precursor start, so a signal peptide is probably cleaved in the secreted protein; also called N-terminal domain; soluble N-terminal; not shown: 8xHis tag
In words: SPR Biacore 4000, antibody captured on protein G, His-tagged fragment analyte, 1:1 fit, N=1.

The target in assay [6] is Human CD117 (c-kit), cell-surface expressed (human, UniProt P10721 26-976). As to the kind of experiment: cell-based or functional assay.
Assay [7] concerns the target T5, Murine CD117, soluble (MuCD117 1-527) (mouse, UniProt P05532 25-527).
T5 construct: Residues as printed
T5 sequence: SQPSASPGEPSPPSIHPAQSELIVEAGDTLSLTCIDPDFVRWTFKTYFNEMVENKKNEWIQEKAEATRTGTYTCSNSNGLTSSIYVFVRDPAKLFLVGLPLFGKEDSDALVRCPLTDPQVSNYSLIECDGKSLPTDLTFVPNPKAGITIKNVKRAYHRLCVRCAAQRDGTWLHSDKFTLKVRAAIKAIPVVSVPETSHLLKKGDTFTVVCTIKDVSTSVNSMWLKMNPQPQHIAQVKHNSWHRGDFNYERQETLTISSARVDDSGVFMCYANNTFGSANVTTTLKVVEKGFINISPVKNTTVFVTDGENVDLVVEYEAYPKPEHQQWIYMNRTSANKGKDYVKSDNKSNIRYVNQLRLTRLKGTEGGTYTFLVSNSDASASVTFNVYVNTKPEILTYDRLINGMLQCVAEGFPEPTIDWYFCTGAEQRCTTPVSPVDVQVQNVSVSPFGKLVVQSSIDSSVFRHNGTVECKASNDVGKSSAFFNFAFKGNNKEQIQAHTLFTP
As to the kind of experiment: SPR, captured antibody, soluble CD117 analyte.
Procedure: as §1, §2, §3

The values below come from patent publication US20250171536A1 (CSL INNOVATION, published 2025).

Chain of Human CD117 (c-kit), cell-surface expressed (P10721 26-976 limits assumed): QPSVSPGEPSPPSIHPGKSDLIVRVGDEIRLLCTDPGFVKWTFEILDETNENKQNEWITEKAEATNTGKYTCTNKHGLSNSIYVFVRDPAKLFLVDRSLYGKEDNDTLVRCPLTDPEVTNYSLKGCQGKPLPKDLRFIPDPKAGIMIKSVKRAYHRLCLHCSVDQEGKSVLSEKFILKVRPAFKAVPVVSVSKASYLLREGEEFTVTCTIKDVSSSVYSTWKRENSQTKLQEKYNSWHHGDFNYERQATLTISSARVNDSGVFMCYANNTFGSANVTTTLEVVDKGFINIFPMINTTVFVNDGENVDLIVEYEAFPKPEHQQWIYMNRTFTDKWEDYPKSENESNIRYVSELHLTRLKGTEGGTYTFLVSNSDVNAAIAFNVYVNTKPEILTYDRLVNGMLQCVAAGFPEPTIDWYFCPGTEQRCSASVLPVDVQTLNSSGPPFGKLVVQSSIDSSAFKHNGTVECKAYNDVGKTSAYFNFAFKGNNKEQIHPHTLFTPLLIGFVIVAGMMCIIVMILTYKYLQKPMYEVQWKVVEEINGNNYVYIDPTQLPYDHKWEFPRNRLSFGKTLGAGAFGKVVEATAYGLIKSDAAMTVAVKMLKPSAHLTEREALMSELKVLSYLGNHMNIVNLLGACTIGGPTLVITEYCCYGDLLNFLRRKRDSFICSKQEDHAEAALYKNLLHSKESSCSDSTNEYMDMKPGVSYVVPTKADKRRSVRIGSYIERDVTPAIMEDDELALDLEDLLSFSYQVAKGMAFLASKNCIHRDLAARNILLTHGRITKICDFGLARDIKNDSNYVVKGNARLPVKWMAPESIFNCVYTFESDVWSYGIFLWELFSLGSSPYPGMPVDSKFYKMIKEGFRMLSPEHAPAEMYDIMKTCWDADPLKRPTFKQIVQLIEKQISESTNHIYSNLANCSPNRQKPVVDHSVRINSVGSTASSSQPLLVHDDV
T2 sequence (P10721 26-524): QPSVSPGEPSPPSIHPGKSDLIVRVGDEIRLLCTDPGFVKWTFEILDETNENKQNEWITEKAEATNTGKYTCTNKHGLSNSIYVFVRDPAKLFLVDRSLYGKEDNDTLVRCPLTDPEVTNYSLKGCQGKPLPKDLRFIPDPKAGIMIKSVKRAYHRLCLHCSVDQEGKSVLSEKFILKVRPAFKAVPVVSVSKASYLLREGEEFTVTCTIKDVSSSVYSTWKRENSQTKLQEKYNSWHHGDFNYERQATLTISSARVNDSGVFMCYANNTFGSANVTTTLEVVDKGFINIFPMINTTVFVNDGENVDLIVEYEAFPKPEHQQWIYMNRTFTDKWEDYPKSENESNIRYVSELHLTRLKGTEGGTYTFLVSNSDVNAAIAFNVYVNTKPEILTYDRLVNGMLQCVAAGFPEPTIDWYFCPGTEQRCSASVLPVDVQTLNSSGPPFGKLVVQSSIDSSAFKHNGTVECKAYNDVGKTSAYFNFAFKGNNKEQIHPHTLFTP
T1 sequence (P10721 308-524): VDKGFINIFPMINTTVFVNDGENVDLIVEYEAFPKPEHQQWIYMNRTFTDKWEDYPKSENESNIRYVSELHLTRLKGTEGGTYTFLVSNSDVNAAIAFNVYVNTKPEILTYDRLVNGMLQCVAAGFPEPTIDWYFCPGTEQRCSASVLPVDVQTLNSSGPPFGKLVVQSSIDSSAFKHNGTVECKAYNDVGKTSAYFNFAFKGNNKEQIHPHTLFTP
Chain of N-terminal domain of human CD117, soluble (HuCD117 1-308) (P10721 26-308): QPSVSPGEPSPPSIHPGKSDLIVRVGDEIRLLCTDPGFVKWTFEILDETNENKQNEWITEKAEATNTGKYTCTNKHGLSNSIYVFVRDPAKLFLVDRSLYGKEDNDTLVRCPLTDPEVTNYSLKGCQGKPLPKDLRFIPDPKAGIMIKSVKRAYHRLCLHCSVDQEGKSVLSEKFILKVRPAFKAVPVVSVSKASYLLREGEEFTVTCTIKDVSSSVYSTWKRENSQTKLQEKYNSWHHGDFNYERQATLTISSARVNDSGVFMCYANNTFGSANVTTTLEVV
T4 sequence (P10721 26-307): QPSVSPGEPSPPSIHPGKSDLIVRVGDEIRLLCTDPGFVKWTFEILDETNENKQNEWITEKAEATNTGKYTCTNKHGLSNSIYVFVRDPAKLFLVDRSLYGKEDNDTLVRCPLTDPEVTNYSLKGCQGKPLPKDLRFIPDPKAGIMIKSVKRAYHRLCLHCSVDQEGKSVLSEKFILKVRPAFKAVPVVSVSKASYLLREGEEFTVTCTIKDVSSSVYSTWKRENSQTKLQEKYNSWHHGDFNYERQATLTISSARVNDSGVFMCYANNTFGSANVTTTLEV

B1: hu4A2 IgG4 (hu4A2-hKG4p) (antibody)
heavy: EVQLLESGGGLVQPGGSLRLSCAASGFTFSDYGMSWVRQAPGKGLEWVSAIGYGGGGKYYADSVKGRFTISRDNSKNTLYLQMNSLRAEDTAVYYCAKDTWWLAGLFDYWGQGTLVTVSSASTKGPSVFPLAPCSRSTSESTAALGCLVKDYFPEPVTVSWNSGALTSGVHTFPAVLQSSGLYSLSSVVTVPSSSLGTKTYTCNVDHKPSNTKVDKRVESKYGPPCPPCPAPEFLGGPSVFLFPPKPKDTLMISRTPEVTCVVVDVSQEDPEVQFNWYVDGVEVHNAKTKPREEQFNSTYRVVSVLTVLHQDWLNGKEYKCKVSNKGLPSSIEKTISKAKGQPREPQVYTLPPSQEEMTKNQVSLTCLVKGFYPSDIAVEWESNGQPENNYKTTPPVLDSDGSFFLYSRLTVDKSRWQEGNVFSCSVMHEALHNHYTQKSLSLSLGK
light: IVLTQSPGTLSLSPGKRATLSCRASQSVSNSYLAWYQQKPGQPPKLLIYWASTRESGVPDRFSGSGSGTDFTLTISSLQAEDVAVYYCQQYYSTPLTFGGGTKVEIKRTVAAPSVFIFPPSDEQLKSGTASVVCLLNNFYPREAKVQWKVDNALQSGNSQESVTEQDSKDSTYSLSSTLTLSKADYEKHKVYACEVTHQGLSSPVTKSFNRGEC
notes: Human IgG4, kappa
As for B1, the binding result in assay [1] is given as “no binding (tested: 225 nM)”. Besides, the Kd (in general, a measure of binding affinity in units of concentration) came to 38.3 nM in assay [2], 43.4 nM in assay [3], 19.9 nM in assay [4] and 49 nM in assay [5].

B2: 3C2 IgA2 anti-CD117 antibody (Example 8) (antibody, V domains shown)
VH: EVQLAESGGDLVQPGGSLRLSCAASGFTFSSYAMSWVRQAPGKGLEWVSAISGSGGSTYYADSVKGRFTISRDNSKNTLYLQMNSLRAEDTAIYYCARDLRVYAMEAFDIWGQGTMVTVSS
VL: SYELTQDPAVSVALGQTVRITCQGDSLRDYYANWFQQKPGQAPLLVIFYDSDRPSGIPERFSGSNSGNTATLTISRVEAGDEADYYCQAWDSSSDHWVFGGGTKL
Take B2: in assay [6], the “Normalised uptake (B max) in %, ADCT” value came out at 3.38%.

B3: 3B3 IgA2 anti-CD117 antibody (Example 8) (antibody, V domains shown)
VH: EVQLVESGGGVVQPGRSLRLSCAASGFTFSSYAMHWVRQAPGKGLEWVSVIYSGGSTYYADSVKGRFTISRDNSKNTLYLQMNSLRAEDTAVYYCARDSSGYRGDFDYWGQGTLVTVSS
VL: SYELTQPPSVSVSPGQTASITCSGDKVGAKYVFWYQQKPGQSPVLVVYQDNKRPSGIPERFSGSNSGNTATLTISGTQAMDEADYYCQAWDSSTALYVFGTGTKV
For the molecule B3, in assay [6], the “EC50 of trogocytosis (ADCT; DILC18 membrane uptake by neutrophils from CD117-transfected 293 cells)” value (“EC50 of trogocytosis” for short) came to 0.44 nM and the “Normalised uptake (B max) in %, ADCT” value was 51.1%.

B4: hu3C2 IgG4 (hu3C2-hLG4p) (antibody)
heavy: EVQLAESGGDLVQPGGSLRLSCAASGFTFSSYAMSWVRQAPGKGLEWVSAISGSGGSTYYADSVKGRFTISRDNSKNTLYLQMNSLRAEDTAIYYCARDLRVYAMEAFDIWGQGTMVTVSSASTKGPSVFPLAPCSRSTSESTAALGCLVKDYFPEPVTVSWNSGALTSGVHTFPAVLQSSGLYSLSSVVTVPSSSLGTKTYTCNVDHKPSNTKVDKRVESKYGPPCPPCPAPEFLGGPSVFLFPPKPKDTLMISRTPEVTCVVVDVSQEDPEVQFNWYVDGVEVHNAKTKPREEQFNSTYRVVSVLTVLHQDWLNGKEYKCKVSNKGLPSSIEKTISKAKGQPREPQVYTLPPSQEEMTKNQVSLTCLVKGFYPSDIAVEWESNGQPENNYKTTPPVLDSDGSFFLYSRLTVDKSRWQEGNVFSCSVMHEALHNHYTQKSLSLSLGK
light: SYELTQDPAVSVALGQTVRITCQGDSLRDYYANWFQQKPGQAPLLVIFYDSDRPSGIPERFSGSNSGNTATLTISRVEAGDEADYYCQAWDSSSDHWVFGGGTKLTVLGQPKAAPSVTLFPPSSEELQANKATLVCLISDFYPGAVTVAWKADGSPVKAGVETTKPSKQSNNKYAASSYLSLTPEQWKSHRSYSCQVTHEGSTVEKTVAPTECS
With B4, the binding result in assay [1] was “no binding (tested: 225 nM)”. In assay [5], this molecule showed a Kd of 14 nM.

B5: hu3C2 IgA2 (hu3C2-hLhA2 (P221R)) (antibody)
heavy: EVQLAESGGDLVQPGGSLRLSCAASGFTFSSYAMSWVRQAPGKGLEWVSAISGSGGSTYYADSVKGRFTISRDNSKNTLYLQMNSLRAEDTAIYYCARDLRVYAMEAFDIWGQGTMVTVSSASPTSPKVFPLSLDSTPQDGNVVVACLVQGFFPQEPLSVTWSESGQNVTARNFPPSQDASGDLYTTSSQLTLPATQCPDGKSVTCHVKHYTNSSQDVTVPCRVPPPPPCCHPRLSLHRPALEDLLLGSEANLTCTLTGLRDASGATFTWTPSSGKSAVQGPPERDLCGCYSVSSVLPGCAQPWNHGETFTCTAAHPELKTPLTANITKSGNTFRPEVHLLPPPSEELALNELVTLTCLARGFSPKDVLVRWLQGSQELPREKYLTWASRQEPSQGTTTFAVTSILRVAAEDWKKGDTFSCMVGHEALPLAFTQKTIDRLAGKPTHVNVSVVMAEVDGTCY
light: SYELTQDPAVSVALGQTVRITCQGDSLRDYYANWFQQKPGQAPLLVIFYDSDRPSGIPERFSGSNSGNTATLTISRVEAGDEADYYCQAWDSSSDHWVFGGGTKLTVLGQPKAAPSVTLFPPSSEELQANKATLVCLISDFYPGAVTVAWKADGSPVKAGVETTKPSKQSNNKYAASSYLSLTPEQWKSHRSYSCQVTHEGSTVEKTVAPTECS
In the case of B5, the binding result in assay [7] is reported as “no binding (tested: 200 nM (highest CD117 concentration))”. The Kd in assay [2] is 9.3 nM; in assay [3], 20.9 nM; in assay [4], 2.44 nM.

B6: 3B2 IgA2 anti-CD117 antibody (Example 8) (antibody, V domains shown)
VH: QVQLQESGPGLVKPSETLSLTCTVSGYSISSGYYWGWIRQPPGKGLEWIGSIYHSGSTYYNPSLKSRVTISVDTSKNQFSLKLSSVTAADTAVYYCARVGVRYFDWLLYGAFDIWGQGTMVTVSS
VL: SYELTQPPSVSVSPGQTATITCSGDKLGETYVHWYQHQSGQSPILVVYQDFKRPSGIPERFSGSNSGNTATLTISGTQAMDEADYYCQAWDSSTAVFGGGTKL
In the case of B6, in assay [6], the “EC50 of trogocytosis” value is 4.51 nM and the “Normalised uptake (B max) in %, ADCT” value turned out to be 42.7%.

B7: 4A2 IgA2 anti-CD117 antibody (Example 8) (antibody, V domains shown)
VH: EVQLLESGGGLVQPGGSLRLSCAASGFTFSDYGMSWVRQAPGKGLEWVSAIGYGGGGKYYADSVKGRFTISRDNSKNTLYLQMNSLRAEDTAVYYCAKDTWWLAGLFDYWGQGTLVTVSS
VL: EIVLTQSPGTLSLSPGKRATLSCRASQSVSNSYLAWYQQKPGQPPKLLIYWASTRESGVPDRFSGSGSGTDFTLTISSLQAEDVAVYYCQQYYSTPLTFGGGTKVEIKR
As to B7, in assay [6], the “EC50 of trogocytosis” value was found to be 0.64 nM and the “Normalised uptake (B max) in %, ADCT” value is 95.3%.

B8: hu3B3 IgG4 (hu3B3-hLG4) (antibody)
heavy: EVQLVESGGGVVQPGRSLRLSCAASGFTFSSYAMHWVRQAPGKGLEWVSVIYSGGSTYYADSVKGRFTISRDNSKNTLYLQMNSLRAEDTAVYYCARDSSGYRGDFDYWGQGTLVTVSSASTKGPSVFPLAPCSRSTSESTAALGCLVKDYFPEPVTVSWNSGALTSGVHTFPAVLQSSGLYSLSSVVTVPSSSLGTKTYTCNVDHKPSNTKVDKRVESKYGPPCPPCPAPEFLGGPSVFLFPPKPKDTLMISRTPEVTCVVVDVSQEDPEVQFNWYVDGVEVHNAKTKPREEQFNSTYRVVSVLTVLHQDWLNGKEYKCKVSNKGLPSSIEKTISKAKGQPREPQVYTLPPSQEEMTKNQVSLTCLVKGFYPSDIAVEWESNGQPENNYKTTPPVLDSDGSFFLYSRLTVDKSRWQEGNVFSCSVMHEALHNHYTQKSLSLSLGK
light: SYELTQPPSVSVSPGQTASITCSGDKVGAKYVFWYQQKPGQSPVLVVYQDNKRPSGIPERFSGSNSGNTATLTISGTQAMDEADYYCQAWDSSTALYVFGTGTKVTVLGQPKANPTVTLFPPSSEELQANKATLVCLISDFYPGAVTVAWKADGSPVKAGVETTKPSKQSNNKYAASSYLSLTPEQWKSHRSYSCQVTHEGSTVEKTVAPTECS
For B8, the binding result in assay [1] is “no binding (tested: 225 nM)”. The Kd in assay [5] is 9 nM.

B9: hu3B3 IgA2 (hu3B3-hLhA2 (P221R)) (antibody)
heavy: EVQLVESGGGVVQPGRSLRLSCAASGFTFSSYAMHWVRQAPGKGLEWVSVIYSGGSTYYADSVKGRFTISRDNSKNTLYLQMNSLRAEDTAVYYCARDSSGYRGDFDYWGQGTLVTVSSASPTSPKVFPLSLDSTPQDGNVVVACLVQGFFPQEPLSVTWSESGQNVTARNFPPSQDASGDLYTTSSQLTLPATQCPDGKSVTCHVKHYTNSSQDVTVPCRVPPPPPCCHPRLSLHRPALEDLLLGSEANLTCTLTGLRDASGATFTWTPSSGKSAVQGPPERDLCGCYSVSSVLPGCAQPWNHGETFTCTAAHPELKTPLTANITKSGNTFRPEVHLLPPPSEELALNELVTLTCLARGFSPKDVLVRWLQGSQELPREKYLTWASRQEPSQGTTTFAVTSILRVAAEDWKKGDTFSCMVGHEALPLAFTQKTIDRLAGKPTHVNVSVVMAEVDGTCY
light: SYELTQPPSVSVSPGQTASITCSGDKVGAKYVFWYQQKPGQSPVLVVYQDNKRPSGIPERFSGSNSGNTATLTISGTQAMDEADYYCQAWDSSTALYVFGTGTKVTVLGQPKANPTVTLFPPSSEELQANKATLVCLISDFYPGAVTVAWKADGSPVKAGVETTKPSKQSNNKYAASSYLSLTPEQWKSHRSYSCQVTHEGSTVEKTVAPTECS
B9: the binding result in assay [7] is on record as “no binding (tested: 200 nM (highest CD117 concentration))”. Further, the Kd in assay [2] was determined as 2.5 nM; in assay [3], 4.4 nM; in assay [4], 0.49 nM.
